Assay results published in the supplement of paper PMC10567573.

B1: OR10K2 (parent)
chain: SLARLQQLLFVIFLLLYLFTLGTN

Variants of: B1
Test: protein stability index of a GFP-peptide fusion (GPS, HEK-293T) (PSI 1-6); higher = more stable
Conditions: c terminus: a fixed tail appended
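Further: lentivirally expressed fusions sorted by FACS into six bins by GFP to DsRed ratio, PSI derived from sequencing read proportions per bin multiplied by bin number.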

Variant | protein stability index
SLARLQQLLFVIFLLLYLFILGTN [T20I] | 2.11
SLARLQQLLFVIFLLLYLFQLGTN [T20Q] | 1.45
SLARLQQLLFVIFLLLYLFLLGTN [T20L] | 1.5
SLARLQQLLFVIFLLLYLFNLGTN [T20N] | 3.75
SLARLQQLLFVIFLLLYLFFLGTN [T20F] | 3.51
SLARLQQLLFVIFLLLYLFRLGTN [T20R] | 2.2
SLARLQQLLFVIFLLLYLFMLGTN [T20M] | 1.29
SLARIQQLLFVIFLLLYLFTLGTN [L5I] | 1.78
SLAREQQLLFVIFLLLYLFTLGTN [L5E] | 2.27
SLARAQQLLFVIFLLLYLFTLGTN [L5A] | 3.68
SLARWQQLLFVIFLLLYLFTLGTN [L5W] | 3.37
SLARMQQLLFVIFLLLYLFTLGTN [L5M] | 1.41
SLARDQQLLFVIFLLLYLFTLGTN [L5D] | 3.05
SLARVQQLLFVIFLLLYLFTLGTN [L5V] | 2.44
SLARHQQLLFVIFLLLYLFTLGTN [L5H] | 2.62
SLARCQQLLFVIFLLLYLFTLGTN [L5C] | 3.1
SLARKQQLLFVIFLLLYLFTLGTN [L5K] | 2.85
SLARRQQLLFVIFLLLYLFTLGTN [L5R] | 1.85
SLARNQQLLFVIFLLLYLFTLGTN [L5N] | 2
SLARGQQLLFVIFLLLYLFTLGTN [L5G] | 3.76
SLARSQQLLFVIFLLLYLFTLGTN [L5S] | 3.05
SLARTQQLLFVIFLLLYLFTLGTN [L5T] | 2.28
SLARLQQLLFVIFLTLYLFTLGTN [L15T] | 2.62
SLARLQQLLFVIFLVLYLFTLGTN [L15V] | 1.48

Variant | protein stability index
SLARLQQLLFVIFLQLYLFTLGTN [L15Q] | 2.4
SLARLQQYLFVIFLLLYLFTLGTN [L8Y] | 3.36
SLARLQQMLFVIFLLLYLFTLGTN [L8M] | 3.83
SLARLQQWLFVIFLLLYLFTLGTN [L8W] | 2.53
SLARLQQNLFVIFLLLYLFTLGTN [L8N] | 2.24
SLARLQQELFVIFLLLYLFTLGTN [L8E] | 1.9
SLARLQQKLFVIFLLLYLFTLGTN [L8K] | 3.04
SLARLQQDLFVIFLLLYLFTLGTN [L8D] | 2.99
SLARLQQPLFVIFLLLYLFTLGTN [L8P] | 3.32
SLARLQQSLFVIFLLLYLFTLGTN [L8S] | 2.86
SLARLQQALFVIFLLLYLFTLGTN [L8A] | 1.98
SLARLQQVLFVIFLLLYLFTLGTN [L8V] | 2.17
SLARLQQFLFVIFLLLYLFTLGTN [L8F] | 2.88
SLARLQQCLFVIFLLLYLFTLGTN [L8C] | 3.24
SLARLQQTLFVIFLLLYLFTLGTN [L8T] | 1.97
SLARLQQLLFVIFLLLYLLTLGTN [F19L] | 2.05
SLARLQQLLFVIFLLLYLITLGTN [F19I] | 1.51
SLARLQQLLFVHFLLLYLFTLGTN [I12H] | 2.02
SLARLQQLLFVLFLLLYLFTLGTN [I12L] | 2.29
SLARLQQLLFVPFLLLYLFTLGTN [I12P] | 3.58
SLARLQQLLFVIFILLYLFTLGTN [L14I] | 2.72
SLARLQQLLFVIFHLLYLFTLGTN [L14H] | 2.31
SLARLQQLLFVIFFLLYLFTLGTN [L14F] | 2.64
SLAPLQQLLFVIFLLLYLFTLGTN [R4P] | 2.24

Variant | protein stability index
SLAILQQLLFVIFLLLYLFTLGTN [R4I] | 3.36
SLAELQQLLFVIFLLLYLFTLGTN [R4E] | 3.95
SLAALQQLLFVIFLLLYLFTLGTN [R4A] | 4.04
SLALLQQLLFVIFLLLYLFTLGTN [R4L] | 3.28
SLAFLQQLLFVIFLLLYLFTLGTN [R4F] | 2.36
SLAKLQQLLFVIFLLLYLFTLGTN [R4K] | 2.19
SLAWLQQLLFVIFLLLYLFTLGTN [R4W] | 2.28
SLAMLQQLLFVIFLLLYLFTLGTN [R4M] | 3.67
SLANLQQLLFVIFLLLYLFTLGTN [R4N] | 2.73
SLAHLQQLLFVIFLLLYLFTLGTN [R4H] | 2.36
SLADLQQLLFVIFLLLYLFTLGTN [R4D] | 1.62
SLASLQQLLFVIFLLLYLFTLGTN [R4S] | 2.62
SLARLQQLLFVIYLLLYLFTLGTN [F13Y] | 3.74
SLARLQQLLFVIQLLLYLFTLGTN [F13Q] | 3.04
SLARLQQLLFVICLLLYLFTLGTN [F13C] | 3.12
SLARLQQLLFVIALLLYLFTLGTN [F13A] | 2.44
SLARLQQLLFVIGLLLYLFTLGTN [F13G] | 1.73
SLARLQQLLFVIKLLLYLFTLGTN [F13K] | 1.43
SLARLQQLLFVIFLLLYDFTLGTN [L18D] | 1.64
SLARLQQLLFVIFLLLYGFTLGTN [L18G] | 2.29
SLARLQQLLFVIFLLLYKFTLGTN [L18K] | 2.07
SLARLQQLLFVIFLLLYSFTLGTN [L18S] | 2.25
SLARLQQLLFVIFLLLYMFTLGTN [L18M] | 2.1
SLARLQQLLFVIFLLLYIFTLGTN [L18I] | 2.73

Variant | protein stability index
SLARLQALLFVIFLLLYLFTLGTN [Q7A] | 1.91
SLARLQPLLFVIFLLLYLFTLGTN [Q7P] | 1.9
SLARLQILLFVIFLLLYLFTLGTN [Q7I] | 1.99
SLARLQTLLFVIFLLLYLFTLGTN [Q7T] | 1.74
SLARLQYLLFVIFLLLYLFTLGTN [Q7Y] | 1.66
SLARLQWLLFVIFLLLYLFTLGTN [Q7W] | 1.58
SLARLQELLFVIFLLLYLFTLGTN [Q7E] | 2.69
SLARLQFLLFVIFLLLYLFTLGTN [Q7F] | 1.79
SLARLQLLLFVIFLLLYLFTLGTN [Q7L] | 1.72
SLARLQSLLFVIFLLLYLFTLGTN [Q7S] | 2.11
SLARLQGLLFVIFLLLYLFTLGTN [Q7G] | 3.23
SLARLQNLLFVIFLLLYLFTLGTN [Q7N] | 3.21
SLARLQRLLFVIFLLLYLFTLGTN [Q7R] | 2.45
SLARLQMLLFVIFLLLYLFTLGTN [Q7M] | 2.14
SLARLQQLLGVIFLLLYLFTLGTN [F10G] | 3.07
SLARLQQLLTVIFLLLYLFTLGTN [F10T] | 3.08
SLARLQQLLYVIFLLLYLFTLGTN [F10Y] | 2.37
SLARLQQLLQVIFLLLYLFTLGTN [F10Q] | 2.22
SLARLQQLLVVIFLLLYLFTLGTN [F10V] | 2.29
SLARLQQLLRVIFLLLYLFTLGTN [F10R] | 3.34
SLARLQQLLNVIFLLLYLFTLGTN [F10N] | 2.18
SLARLQQLLIVIFLLLYLFTLGTN [F10I] | 4.24
